The text below walks through data of PMC12263834, “Structural basis of Fanconi anemia pathway activation by FANCM”.

Data set [1] has as its target FANCE (FA core complex component, in cells) [human (endogenous in HCT116 or HEK293 cells)]. Nature of the data set: co-immunoprecipitation (quantified Western blot). The following applies: cell-based; n = 3 independent co-immunoprecipitation experiments; parent: 100; read off a plot.
Data set [2] deals with FANCA (FA core complex component, in cells) [human (endogenous in HCT116 or HEK293 cells)]. Nature of the data set: co-immunoprecipitation (quantified Western blot). The following applies: cell-based; n = 3 independent co-immunoprecipitation experiments; parent: 100; read off a plot. A general note: In western blotting, separated proteins are transferred to a membrane and probed.

The target in data set [3] is T1, FANCM translocase domain (8HIS-FANCM 73-644) (human, UniProt Q8IYD8 73-644).
T1 sequence: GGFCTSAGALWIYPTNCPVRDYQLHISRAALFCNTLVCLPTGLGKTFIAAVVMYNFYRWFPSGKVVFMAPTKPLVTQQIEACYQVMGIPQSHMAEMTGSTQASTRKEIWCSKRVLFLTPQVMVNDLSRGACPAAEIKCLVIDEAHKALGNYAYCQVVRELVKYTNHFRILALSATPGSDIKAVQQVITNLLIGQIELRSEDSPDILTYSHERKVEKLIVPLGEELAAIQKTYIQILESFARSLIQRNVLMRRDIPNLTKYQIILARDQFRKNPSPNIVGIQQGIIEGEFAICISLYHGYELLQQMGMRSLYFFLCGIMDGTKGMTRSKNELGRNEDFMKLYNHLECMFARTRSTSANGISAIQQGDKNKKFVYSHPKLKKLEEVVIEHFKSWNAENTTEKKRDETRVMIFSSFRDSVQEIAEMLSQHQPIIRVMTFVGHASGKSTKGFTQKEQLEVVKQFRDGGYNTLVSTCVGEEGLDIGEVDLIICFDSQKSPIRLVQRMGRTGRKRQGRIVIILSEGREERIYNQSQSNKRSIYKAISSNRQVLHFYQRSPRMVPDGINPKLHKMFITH
Description: crystal structure (2.2 A); 5 mM MgCl2 in protein buffer; Fluorescence anisotropy: 25 mM Tris-HCl pH 8, 20 mM NaCl, 2 mM MnCl2, 0.1 mg/ml BSA, temperature not stated; crystals N-terminal domain: 0.2 M NaCl, 0.1 M HEPES pH 7.0, 32.5% PEG 400, room temperature; CTD: 25% PEG3350, 0.1 M diammonium hydrogen phosphate. The following applies: protein: recombinant; tags: 8xHis N-terminal; hairpin, 14 bp stem, TTAG loop, 11 nt 3' flap.

A further data set addresses T2, FANCM-CTD;FAAP24 (human?;human?, UniProt Q8IYD8;Q9BTP7 1799-2048;1-215, |).
T2 sequence 1: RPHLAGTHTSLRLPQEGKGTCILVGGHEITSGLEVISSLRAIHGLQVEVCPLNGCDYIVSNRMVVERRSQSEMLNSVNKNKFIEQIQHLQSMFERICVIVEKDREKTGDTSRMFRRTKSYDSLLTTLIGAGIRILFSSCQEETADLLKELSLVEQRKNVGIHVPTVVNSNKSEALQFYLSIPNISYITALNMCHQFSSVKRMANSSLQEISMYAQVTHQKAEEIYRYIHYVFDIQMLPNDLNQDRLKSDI
T2 sequence 2: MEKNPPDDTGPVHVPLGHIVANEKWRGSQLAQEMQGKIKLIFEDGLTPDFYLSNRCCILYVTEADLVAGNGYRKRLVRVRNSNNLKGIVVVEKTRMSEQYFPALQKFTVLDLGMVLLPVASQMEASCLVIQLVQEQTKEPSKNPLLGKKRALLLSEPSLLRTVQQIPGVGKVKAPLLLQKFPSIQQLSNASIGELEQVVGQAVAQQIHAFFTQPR
Nature of the data set: crystal structure (2.4 A); Mg2+ site in FAAP24; duplex contacted, splayed arms disordered; Fluorescence anisotropy: 25 mM Tris-HCl pH 8, 20 mM NaCl, 2 mM MnCl2, 0.1 mg/ml BSA, temperature not stated; crystals N-terminal domain: 0.2 M NaCl, 0.1 M HEPES pH 7.0, 32.5% PEG 400, room temperature; CTD: 25% PEG3350, 0.1 M diammonium hydrogen phosphate. The following applies: protein: recombinant;recombinant; tags: GST (PreScission cleaved);HIS; copies: 1;1; 17 bp duplex with splayed arms: 3' TTTT on SA1 and 5' TTTT on SA2 at the same end. (Fluorescence polarisation rises when a labelled molecule tumbles more slowly, as on binding a larger partner.)

Regarding “Flag-FANCM-wildtype (expressed in cells) mutant V990A [human] / FANCE (FA core complex component, in cells) [human (endogenous in HCT116 or HEK293 cells)] chain 1 V990A”, the percent of parent (% of wild-type FANCM) in data set [1] came to 27.
On the same count and under the same terms, next, “Flag-FANCM-wildtype (expressed in cells) mutant P999L [human] / FANCE (FA core complex component, in cells) [human (endogenous in HCT116 or HEK293 cells)] chain 1 P999L”: 10.
As for “Flag-FANCM-wildtype (expressed in cells) mutant P999L [human] / FANCA (FA core complex component, in cells) [human (endogenous in HCT116 or HEK293 cells)] chain 1 P999L”, the percent of parent (% of wild-type FANCM) in data set [2] came to 14.
Same read-out and setting: next, “Flag-FANCM-wildtype (expressed in cells) mutant V990A [human] / FANCA (FA core complex component, in cells) [human (endogenous in HCT116 or HEK293 cells)] chain 1 V990A”: 40.

B1: Hairpin15 (3' flap hairpin) (structured_DNA)
DNA: GGTATGAGCACTGCTTAGGCAGTGCTCATACCGCATGGAGCTG
Regarding B1, in data set [3], the binding result is given as “binds”.

B2: SA1/SA2 splayed duplex (dsDNA)
DNA 1: TACGCATCATCGCTCGGTTTT
DNA 2: TTTTCCGAGCGATGATGCGTA
On to B2, for which the binding result with FANCM-CTD;FAAP24 was “binds”.
